T1: CEACAM6 protein on 721.221 cells (human, UniProt P40199 35-142)
T1 construct: also called CD66c
T1 sequence: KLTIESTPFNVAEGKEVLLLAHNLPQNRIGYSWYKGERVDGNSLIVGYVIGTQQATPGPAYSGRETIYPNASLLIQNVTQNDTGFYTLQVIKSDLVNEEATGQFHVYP

T2: CD99-Ig fusion protein (control) (human, UniProt P14209 23-122, limits assumed)
T2 construct: extracellular domain; Control fusion protein produced in COS-7 cells; not shown: human IgG1 (Fc portion)
T2 sequence (looked up): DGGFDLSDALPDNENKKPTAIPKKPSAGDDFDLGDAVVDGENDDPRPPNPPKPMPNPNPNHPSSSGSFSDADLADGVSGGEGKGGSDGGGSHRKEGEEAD

B1: CEACAM1-Ig fusion protein (extracellular portion of CEACAM1 fused to the Fc portion of human IgG1) (Fc fusion)
chain: QLTTESMPFNVAEGKEVLLLVHNLPQQLFGYSWYKGERVDGNRQIVGYAIGTQQATPGPANSGRETIYPNASLLIQNVTQNDTGFYTLQVIKSDLVNEEATGQFHVYP
notes: also called CCM1-Ig; soluble CEACAM1-Ig; not shown: Fc portion of human IgG1

Columns and labels:
Test in all cases: flow cytometry on stably transfected 721.221 cells
[1] = target: T1, CEACAM6 protein on 721.221 cells
[2] = target: B1
[3] = target: T2, CD99-Ig fusion protein (control)

Binder | binding result [1] | binding result [2] | binding result [3]
B1 | no binding |  | 
CCM1-Q44L (CEACAM1 with 44Q changed to 44L) (receptor, also called CEACAM1-Q44L) QLTTESMPFNVAEGKEVLLLVHNLPQQLFGYSWYKGERVDGNRLIVGYAIGTQQATPGPANSGRETIYPNASLLIQNVTQNDTGFYTLQVIKSDLVNEEATGQFHVYP |  | no binding | 
CCM1-RQ43,44SL (CEACAM1 with S and L at positions 43 and 44 instead of R and Q) (receptor, also called CEACAM1-RQ43,44SL) QLTTESMPFNVAEGKEVLLLVHNLPQQLFGYSWYKGERVDGNSLIVGYAIGTQQATPGPANSGRETIYPNASLLIQNVTQNDTGFYTLQVIKSDLVNEEATGQFHVYP |  | no binding | no binding
CCM1-R43A (CEACAM1 with 43R changed to 43A) (receptor, The expression level was lower than that of the other transfectants; also called CEACAM1-R43A) QLTTESMPFNVAEGKEVLLLVHNLPQQLFGYSWYKGERVDGNAQIVGYAIGTQQATPGPANSGRETIYPNASLLIQNVTQNDTGFYTLQVIKSDLVNEEATGQFHVYP |  | no binding | 
CCM6-SL43,44RQ (CEACAM6 with R and Q at positions 43 and 44 instead of S and L) (receptor, also called CEACAM6-SL43,44RQ) KLTIESTPFNVAEGKEVLLLAHNLPQNRIGYSWYKGERVDGNRQIVGYVIGTQQATPGPAYSGRETIYPNASLLIQNVTQNDTGFYTLQVIKSDLVNEEATGQFHVYP |  |  | no binding
CCM6-S43R (CEACAM6 with 43S changed to 43R) (receptor, also called CEACAM6-S43R) KLTIESTPFNVAEGKEVLLLAHNLPQNRIGYSWYKGERVDGNRLIVGYVIGTQQATPGPAYSGRETIYPNASLLIQNVTQNDTGFYTLQVIKSDLVNEEATGQFHVYP |  | no binding | 
CCM6-L44Q (CEACAM6 with 44L changed to 44Q) (receptor, also called CEACAM6-L44Q) KLTIESTPFNVAEGKEVLLLAHNLPQNRIGYSWYKGERVDGNSQIVGYVIGTQQATPGPAYSGRETIYPNASLLIQNVTQNDTGFYTLQVIKSDLVNEEATGQFHVYP |  | no binding | 
